Measurements taken from PMC12931233.

What was measured:
[1] = immunoblot of endogenous CD47, MHCC97-H and HCCLM3; conditions: control: matched control (untreated/DMSO, scramble, vector)
[2] = cell-surface CD47 by flow cytometry and immunofluorescence; conditions: glycan changed form; control: scramble / vector
[3] = CHX chase, rescued MHCC97-H; half-life; conditions: glycan changed form; control: scramble / vector, WT CD47 rescued cells
[4] = IP and ubiquitin immunoblot
[5] = CHX chase immunoblot, 293T; half-life; conditions: glycan lost
[6] = CHX chase immunoblot, reconstituted MHCC97-H; half-life; conditions: glycan lost; control: WT CD47 reconstituted cells
[7] = immunoblot, reconstituted MHCC97-H; conditions: glycan lost; control: WT CD47 reconstituted cells
[8] = Transwell co-culture with BMDCs, flow cytometry; conditions: glycan lost; control: CD47 WT reconstituted Hepa1-6
[9] = Transwell chemotaxis; CCR7 on DCs; conditions: glycan lost; control: CD47 WT reconstituted Hepa1-6
[10] = ubiquitin immunoblot, reconstituted Hepa1-6; conditions: glycan lost; control: WT CD47 reconstituted Hepa1-6

CD47: 2F-Fuc
expression_or_secretion ([1]; glycan changed form): decreases

CD47: FUT8 ablation
expression_or_secretion [2]: decreases

CD47: FUT8 depletion
degradation_or_half_life [3]: decreases

CD47: FUT8 overexpression
expression_or_secretion [2]: increases
degradation_or_half_life [3]: increases

CD47: HA-FUT8 WT overexpression
other: ubiquitination level ([4]; glycan changed form, control: untreated / vector): decreases

CD47: HA-FUT8 overexpression
expression_or_secretion ([1]; glycan changed form): increases

CD47: N23Q
other: ubiquitination level ([4]; glycan lost, control: WT CD47): no change
degradation_or_half_life ([5]; control: Flag-CD47 WT): no change

CD47: N34Q
other: ubiquitination level ([4]; glycan lost, control: WT CD47): no change
degradation_or_half_life ([5]; control: Flag-CD47 WT): no change

CD47: N50Q
other: ubiquitination level ([4]; glycan lost, control: WT CD47): no change
degradation_or_half_life ([5]; control: Flag-CD47 WT): no change

CD47: N73Q
other: ubiquitination level ([4]; glycan lost, control: WT CD47): no change
degradation_or_half_life ([5]; control: Flag-CD47 WT): no change

CD47: N111A
degradation_or_half_life [6]: decreases
expression_or_secretion [7]: decreases

CD47: N111Q
degradation_or_half_life [6]: decreases
expression_or_secretion [7]: decreases
other: ubiquitination level ([4]; glycan lost, control: WT CD47): increases
degradation_or_half_life ([5]; control: Flag-CD47 WT): decreases

CD47: N111T
degradation_or_half_life [6]: decreases
expression_or_secretion [7]: decreases

CD47: shFUT8
expression_or_secretion ([1]; glycan changed form): decreases

CD47: tunicamycin (TM)
other: ubiquitination level ([4]; glycan lost, control: untreated / vector): increases
degradation_or_half_life ([5]; control: DMSO): decreases
expression_or_secretion ([1]; glycan lost): decreases

B1: CD47 (murine): N109Q (protein)
parent chain: MWPLAAALLLGSCCCGSAQLLFSNVNSIEFTSCNETVVIPCIVRNVEAQSTEEMFVKWKLNKSYIFIYDGNKNSTTTDQNFTSAKISVSDLINGIASLKMDKRDAMVGNYTCEVTELSREGKTVIELKNRTVSWFSPNEKILIVIFPILAILLFWGKFGILTLKYKSSHTNKRIILLLVAGLVLTVIVVVGAILLIPGEKPVKNASGLGLIVISTGILILLQYNVFMTAFGMTSFTIAILITQVLGYVLALVGLCLCIMACEPVHGPLLISGLGIIALAELLGLVYMKFVASNQRTIQPPRNR
other: NK cell TNF-α and GZMB expression [8]: increases
other: CD103+ DC migration and CCR7 expression [9]: increases
other: ubiquitination level [10]: increases

B2: CD47 (murine): N109A (protein)
parent chain: MWPLAAALLLGSCCCGSAQLLFSNVNSIEFTSCNETVVIPCIVRNVEAQSTEEMFVKWKLNKSYIFIYDGNKNSTTTDQNFTSAKISVSDLINGIASLKMDKRDAMVGNYTCEVTELSREGKTVIELKNRTVSWFSPNEKILIVIFPILAILLFWGKFGILTLKYKSSHTNKRIILLLVAGLVLTVIVVVGAILLIPGEKPVKNASGLGLIVISTGILILLQYNVFMTAFGMTSFTIAILITQVLGYVLALVGLCLCIMACEPVHGPLLISGLGIIALAELLGLVYMKFVASNQRTIQPPRNR
other: NK cell TNF-α and GZMB expression [8]: increases

B3: CD47 (murine): N109T (protein)
parent chain: MWPLAAALLLGSCCCGSAQLLFSNVNSIEFTSCNETVVIPCIVRNVEAQSTEEMFVKWKLNKSYIFIYDGNKNSTTTDQNFTSAKISVSDLINGIASLKMDKRDAMVGNYTCEVTELSREGKTVIELKNRTVSWFSPNEKILIVIFPILAILLFWGKFGILTLKYKSSHTNKRIILLLVAGLVLTVIVVVGAILLIPGEKPVKNASGLGLIVISTGILILLQYNVFMTAFGMTSFTIAILITQVLGYVLALVGLCLCIMACEPVHGPLLISGLGIIALAELLGLVYMKFVASNQRTIQPPRNR
other: NK cell TNF-α and GZMB expression [8]: increases
